US12679878B2, “CRF2 receptor agonists and their use in therapy” (SANOFI, priority 2020, dated 2026)
Starred links: 1 amine or outer side, 2 acyl side, 3 side chain; linkers in the order of their positions; H or OH if unused. Non-standard residues stand in square brackets, D forms with d. Groups on a side chain read outwards from the residue. No end group written: not given here. *: point of attachment. C18 diacid = O=C(O)CCCCCCCCCCCCCCCCC(=O)*; γGlu = O=C(O)[C@H](CCC(=O)[*:2])N[*:1]; Palmitoyl = CCCCCCCCCCCCCCCC(=O)*; AEEA = NCCOCCOCC(=O)O

T1: anti-target CRF1R receptor (UniProt P34998 24-415, limits assumed)
T1 sequence (looked up): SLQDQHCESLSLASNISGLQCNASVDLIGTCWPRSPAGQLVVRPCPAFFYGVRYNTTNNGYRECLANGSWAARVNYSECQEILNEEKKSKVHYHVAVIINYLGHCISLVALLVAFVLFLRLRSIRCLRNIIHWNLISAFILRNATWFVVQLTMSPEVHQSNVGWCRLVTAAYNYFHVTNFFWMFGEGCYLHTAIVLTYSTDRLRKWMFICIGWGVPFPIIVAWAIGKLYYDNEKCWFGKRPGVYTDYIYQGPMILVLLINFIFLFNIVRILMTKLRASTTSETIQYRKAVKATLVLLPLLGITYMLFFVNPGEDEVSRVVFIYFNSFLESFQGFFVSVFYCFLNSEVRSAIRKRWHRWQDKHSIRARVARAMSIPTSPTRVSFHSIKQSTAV

B1: peptide of SEQ ID NO: 15 (peptide)
peptide: FTLSLDVPTKIK([γGlu-Palmitoyl])QKLFKQAKQKKQRQKAKTNAQILARV-NH2
modifications: N-terminus assumed
SMILES: CCCCCCCCCCCCCCCC(=O)N[C@@H](CCC(=O)NCCCC[C@H](NC(=O)[C@@H](NC(=O)[C@H](CCCCN)NC(=O)[C@@H](NC(=O)[C@@H]1CCCN1C(=O)[C@@H](NC(=O)[C@H](CC(=O)O)NC(=O)[C@H](CC(C)C)NC(=O)[C@H](CO)NC(=O)[C@H](CC(C)C)NC(=O)[C@@H](NC(=O)[C@@H](N)Cc1ccccc1)[C@@H](C)O)C(C)C)[C@@H](C)O)[C@@H](C)CC)C(=O)N[C@@H](CCC(N)=O)C(=O)N[C@@H](CCCCN)C(=O)N[C@@H](CC(C)C)C(=O)N[C@@H](Cc1ccccc1)C(=O)N[C@@H](CCCCN)C(=O)N[C@@H](CCC(N)=O)C(=O)N[C@@H](C)C(=O)N[C@@H](CCCCN)C(=O)N[C@@H](CCC(N)=O)C(=O)N[C@@H](CCCCN)C(=O)N[C@@H](CCCCN)C(=O)N[C@@H](CCC(N)=O)C(=O)N[C@@H](CCCNC(=N)N)C(=O)N[C@@H](CCC(N)=O)C(=O)N[C@@H](CCCCN)C(=O)N[C@@H](C)C(=O)N[C@@H](CCCCN)C(=O)N[C@H](C(=O)N[C@@H](CC(N)=O)C(=O)N[C@@H](C)C(=O)N[C@@H](CCC(N)=O)C(=O)N[C@H](C(=O)N[C@@H](CC(C)C)C(=O)N[C@@H](C)C(=O)N[C@@H](CCCNC(=N)N)C(=O)N[C@H](C(N)=O)C(C)C)[C@@H](C)CC)[C@@H](C)O)C(=O)O
B2: peptide of SEQ ID NO: 39 (peptide)
peptide: IVLSLDVPIKLK([AEEA-AEEA-γGlu-C18 diacid])QILLEQERQRKERQQAETNAQILAQV-NH2
modifications: N-terminus assumed
SMILES: CC[C@H](C)[C@H](N)C(=O)N[C@H](C(=O)N[C@@H](CC(C)C)C(=O)N[C@@H](CO)C(=O)N[C@@H](CC(C)C)C(=O)N[C@@H](CC(=O)O)C(=O)N[C@H](C(=O)N1CCC[C@H]1C(=O)N[C@H](C(=O)N[C@@H](CCCCN)C(=O)N[C@@H](CC(C)C)C(=O)N[C@@H](CCCCNC(=O)COCCOCCNC(=O)COCCOCCNC(=O)CC[C@H](NC(=O)CCCCCCCCCCCCCCCCC(=O)O)C(=O)O)C(=O)N[C@@H](CCC(N)=O)C(=O)N[C@H](C(=O)N[C@@H](CC(C)C)C(=O)N[C@@H](CC(C)C)C(=O)N[C@@H](CCC(=O)O)C(=O)N[C@@H](CCC(N)=O)C(=O)N[C@@H](CCC(=O)O)C(=O)N[C@@H](CCCNC(=N)N)C(=O)N[C@@H](CCC(N)=O)C(=O)N[C@@H](CCCNC(=N)N)C(=O)N[C@@H](CCCCN)C(=O)N[C@@H](CCC(=O)O)C(=O)N[C@@H](CCCNC(=N)N)C(=O)N[C@@H](CCC(N)=O)C(=O)N[C@@H](CCC(N)=O)C(=O)N[C@@H](C)C(=O)N[C@@H](CCC(=O)O)C(=O)N[C@H](C(=O)N[C@@H](CC(N)=O)C(=O)N[C@@H](C)C(=O)N[C@@H](CCC(N)=O)C(=O)N[C@H](C(=O)N[C@@H](CC(C)C)C(=O)N[C@@H](C)C(=O)N[C@@H](CCC(N)=O)C(=O)N[C@H](C(N)=O)C(C)C)[C@@H](C)CC)[C@@H](C)O)[C@@H](C)CC)[C@@H](C)CC)C(C)C)C(C)C
B3: peptide of SEQ ID NO: 8 (peptide)
peptide: FTLSLDVPTKIK([γGlu-Palmitoyl])QKLLKQEKQKKQRQKAKTAAQILAQV-NH2
modifications: N-terminus assumed
SMILES: CCCCCCCCCCCCCCCC(=O)N[C@@H](CCC(=O)NCCCC[C@H](NC(=O)[C@@H](NC(=O)[C@H](CCCCN)NC(=O)[C@@H](NC(=O)[C@@H]1CCCN1C(=O)[C@@H](NC(=O)[C@H](CC(=O)O)NC(=O)[C@H](CC(C)C)NC(=O)[C@H](CO)NC(=O)[C@H](CC(C)C)NC(=O)[C@@H](NC(=O)[C@@H](N)Cc1ccccc1)[C@@H](C)O)C(C)C)[C@@H](C)O)[C@@H](C)CC)C(=O)N[C@@H](CCC(N)=O)C(=O)N[C@@H](CCCCN)C(=O)N[C@@H](CC(C)C)C(=O)N[C@@H](CC(C)C)C(=O)N[C@@H](CCCCN)C(=O)N[C@@H](CCC(N)=O)C(=O)N[C@@H](CCC(=O)O)C(=O)N[C@@H](CCCCN)C(=O)N[C@@H](CCC(N)=O)C(=O)N[C@@H](CCCCN)C(=O)N[C@@H](CCCCN)C(=O)N[C@@H](CCC(N)=O)C(=O)N[C@@H](CCCNC(=N)N)C(=O)N[C@@H](CCC(N)=O)C(=O)N[C@@H](CCCCN)C(=O)N[C@@H](C)C(=O)N[C@@H](CCCCN)C(=O)N[C@H](C(=O)N[C@@H](C)C(=O)N[C@@H](C)C(=O)N[C@@H](CCC(N)=O)C(=O)N[C@H](C(=O)N[C@@H](CC(C)C)C(=O)N[C@@H](C)C(=O)N[C@@H](CCC(N)=O)C(=O)N[C@H](C(N)=O)C(C)C)[C@@H](C)CC)[C@@H](C)O)C(=O)O
B4: peptide of SEQ ID NO: 24 (peptide)
peptide: IVLSLD[dV]PTKLK([AEEA-AEEA-γGlu-C18 diacid])QKLLKQERQRKEREQAEKNKRILERV-NH2
modifications: N-terminus assumed
SMILES: CC[C@H](C)[C@H](N)C(=O)N[C@H](C(=O)N[C@@H](CC(C)C)C(=O)N[C@@H](CO)C(=O)N[C@@H](CC(C)C)C(=O)N[C@@H](CC(=O)O)C(=O)N[C@@H](C(=O)N1CCC[C@H]1C(=O)N[C@H](C(=O)N[C@@H](CCCCN)C(=O)N[C@@H](CC(C)C)C(=O)N[C@@H](CCCCNC(=O)COCCOCCNC(=O)COCCOCCNC(=O)CC[C@H](NC(=O)CCCCCCCCCCCCCCCCC(=O)O)C(=O)O)C(=O)N[C@@H](CCC(N)=O)C(=O)N[C@@H](CCCCN)C(=O)N[C@@H](CC(C)C)C(=O)N[C@@H](CC(C)C)C(=O)N[C@@H](CCCCN)C(=O)N[C@@H](CCC(N)=O)C(=O)N[C@@H](CCC(=O)O)C(=O)N[C@@H](CCCNC(=N)N)C(=O)N[C@@H](CCC(N)=O)C(=O)N[C@@H](CCCNC(=N)N)C(=O)N[C@@H](CCCCN)C(=O)N[C@@H](CCC(=O)O)C(=O)N[C@@H](CCCNC(=N)N)C(=O)N[C@@H](CCC(=O)O)C(=O)N[C@@H](CCC(N)=O)C(=O)N[C@@H](C)C(=O)N[C@@H](CCC(=O)O)C(=O)N[C@@H](CCCCN)C(=O)N[C@@H](CC(N)=O)C(=O)N[C@@H](CCCCN)C(=O)N[C@@H](CCCNC(=N)N)C(=O)N[C@H](C(=O)N[C@@H](CC(C)C)C(=O)N[C@@H](CCC(=O)O)C(=O)N[C@@H](CCCNC(=N)N)C(=O)N[C@H](C(N)=O)C(C)C)[C@@H](C)CC)[C@@H](C)O)C(C)C)C(C)C
B5: peptide of SEQ ID NO: 13 (peptide)
peptide: FTLSLDVPTKIK([AEEA-AEEA-γGlu-C18 diacid])QILFKQQKQKKERQQAEKNKQLLEQI-NH2
modifications: N-terminus assumed
SMILES: CC[C@H](C)[C@H](NC(=O)[C@H](CCC(N)=O)NC(=O)[C@H](CCC(=O)O)NC(=O)[C@H](CC(C)C)NC(=O)[C@H](CC(C)C)NC(=O)[C@H](CCC(N)=O)NC(=O)[C@H](CCCCN)NC(=O)[C@H](CC(N)=O)NC(=O)[C@H](CCCCN)NC(=O)[C@H](CCC(=O)O)NC(=O)[C@H](C)NC(=O)[C@H](CCC(N)=O)NC(=O)[C@H](CCC(N)=O)NC(=O)[C@H](CCCNC(=N)N)NC(=O)[C@H](CCC(=O)O)NC(=O)[C@H](CCCCN)NC(=O)[C@H](CCCCN)NC(=O)[C@H](CCC(N)=O)NC(=O)[C@H](CCCCN)NC(=O)[C@H](CCC(N)=O)NC(=O)[C@H](CCC(N)=O)NC(=O)[C@H](CCCCN)NC(=O)[C@H](Cc1ccccc1)NC(=O)[C@H](CC(C)C)NC(=O)[C@@H](NC(=O)[C@H](CCC(N)=O)NC(=O)[C@H](CCCCNC(=O)COCCOCCNC(=O)COCCOCCNC(=O)CC[C@H](NC(=O)CCCCCCCCCCCCCCCCC(=O)O)C(=O)O)NC(=O)[C@@H](NC(=O)[C@H](CCCCN)NC(=O)[C@@H](NC(=O)[C@@H]1CCCN1C(=O)[C@@H](NC(=O)[C@H](CC(=O)O)NC(=O)[C@H](CC(C)C)NC(=O)[C@H](CO)NC(=O)[C@H](CC(C)C)NC(=O)[C@@H](NC(=O)[C@@H](N)Cc1ccccc1)[C@@H](C)O)C(C)C)[C@@H](C)O)[C@@H](C)CC)[C@@H](C)CC)C(N)=O
B6: peptide of SEQ ID NO: 11 (peptide)
peptide: FTLSLDVPTKIK([γGlu-Palmitoyl])QKLLKQEKQKKQRQKAKTNAQILAQV-NH2
modifications: N-terminus assumed
SMILES: CCCCCCCCCCCCCCCC(=O)N[C@@H](CCC(=O)NCCCC[C@H](NC(=O)[C@@H](NC(=O)[C@H](CCCCN)NC(=O)[C@@H](NC(=O)[C@@H]1CCCN1C(=O)[C@@H](NC(=O)[C@H](CC(=O)O)NC(=O)[C@H](CC(C)C)NC(=O)[C@H](CO)NC(=O)[C@H](CC(C)C)NC(=O)[C@@H](NC(=O)[C@@H](N)Cc1ccccc1)[C@@H](C)O)C(C)C)[C@@H](C)O)[C@@H](C)CC)C(=O)N[C@@H](CCC(N)=O)C(=O)N[C@@H](CCCCN)C(=O)N[C@@H](CC(C)C)C(=O)N[C@@H](CC(C)C)C(=O)N[C@@H](CCCCN)C(=O)N[C@@H](CCC(N)=O)C(=O)N[C@@H](CCC(=O)O)C(=O)N[C@@H](CCCCN)C(=O)N[C@@H](CCC(N)=O)C(=O)N[C@@H](CCCCN)C(=O)N[C@@H](CCCCN)C(=O)N[C@@H](CCC(N)=O)C(=O)N[C@@H](CCCNC(=N)N)C(=O)N[C@@H](CCC(N)=O)C(=O)N[C@@H](CCCCN)C(=O)N[C@@H](C)C(=O)N[C@@H](CCCCN)C(=O)N[C@H](C(=O)N[C@@H](CC(N)=O)C(=O)N[C@@H](C)C(=O)N[C@@H](CCC(N)=O)C(=O)N[C@H](C(=O)N[C@@H](CC(C)C)C(=O)N[C@@H](C)C(=O)N[C@@H](CCC(N)=O)C(=O)N[C@H](C(N)=O)C(C)C)[C@@H](C)CC)[C@@H](C)O)C(=O)O

Each binder was assayed against T1, anti-target CRF1R receptor (assay: cell-based or functional assay).

EC50[nM] 0% HSA (cAMP, CRF1R-overexpression CHO cells) [nM]	Emax (%) (cAMP, CRF1R-overexpression CHO cells)	Binder
> 1000	7.75	B1
> 1000	13.3	B2
> 1000	16	B3
> 1000	1.48	B4
> 1000	4.3	B5
> 1000	12.7	B6

What follows are binders tested against rat CRF2R α receptor (rat, UniProt P47866 20-411) (assay: cell-based or functional assay).
Sequence of rat CRF2R α receptor (P47866 20-411): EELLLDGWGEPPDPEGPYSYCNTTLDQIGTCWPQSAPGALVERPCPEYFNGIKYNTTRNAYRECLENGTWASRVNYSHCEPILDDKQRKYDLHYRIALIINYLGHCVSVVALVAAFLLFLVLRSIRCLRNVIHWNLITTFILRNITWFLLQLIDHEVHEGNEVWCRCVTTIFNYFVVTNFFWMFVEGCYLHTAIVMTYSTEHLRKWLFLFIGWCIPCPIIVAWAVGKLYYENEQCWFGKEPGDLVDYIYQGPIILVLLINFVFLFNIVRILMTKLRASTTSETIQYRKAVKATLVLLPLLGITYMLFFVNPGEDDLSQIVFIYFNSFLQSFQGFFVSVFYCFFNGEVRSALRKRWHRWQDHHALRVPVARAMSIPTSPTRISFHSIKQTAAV

EC50 [nM], 0% HSA (cAMP, A7R5 cells) [nM]	Binder
1.38	B1
2.04	B2
0.11	B3
4.94	B4
2.5	B5
0.01	B6
